From patent US20050074845A1 (Sanofi, published 2005) come the findings set out here.

This experiment addresses T1, human GLUT4 (human, UniProt P14672 1-509, limits assumed).
T1 construct: The ubiquitin-half fusion partners and the limits of the construct are not described; also called Glut 4 transporter
T1 sequence (looked up): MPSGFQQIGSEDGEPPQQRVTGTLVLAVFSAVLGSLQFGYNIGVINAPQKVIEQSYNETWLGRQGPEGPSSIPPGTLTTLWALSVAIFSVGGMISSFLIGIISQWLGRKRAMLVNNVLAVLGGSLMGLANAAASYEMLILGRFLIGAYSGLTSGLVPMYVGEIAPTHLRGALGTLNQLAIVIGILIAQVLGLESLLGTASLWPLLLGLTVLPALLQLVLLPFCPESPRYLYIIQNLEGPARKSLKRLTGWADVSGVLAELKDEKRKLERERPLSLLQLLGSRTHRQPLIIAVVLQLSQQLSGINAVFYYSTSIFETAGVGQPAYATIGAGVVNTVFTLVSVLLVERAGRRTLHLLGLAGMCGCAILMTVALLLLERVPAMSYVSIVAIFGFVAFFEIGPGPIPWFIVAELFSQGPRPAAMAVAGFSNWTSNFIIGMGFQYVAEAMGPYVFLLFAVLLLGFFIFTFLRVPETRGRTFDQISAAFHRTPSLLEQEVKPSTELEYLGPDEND
Nature of the experiment: split-ubiquitin protein interaction assay in yeast.

B1: yeast Erg4 (enzyme)
chain: not shown
notes: The ubiquitin-half fusion partners and the limits of the construct are not described; also called Erg4 protein; sterol C-24(28)-reductase
Take B1: the binding result is recorded as “binds”.
